Assay results as given in patent US20250163162A1.

Biological target: IL10 receptor (IL10R) (human) (UniProt Q13651)
Assay: cell-based or functional assay

IL10 receptor (IL10R) (human), sequence (Q13651 22-578, chain 1 of 2): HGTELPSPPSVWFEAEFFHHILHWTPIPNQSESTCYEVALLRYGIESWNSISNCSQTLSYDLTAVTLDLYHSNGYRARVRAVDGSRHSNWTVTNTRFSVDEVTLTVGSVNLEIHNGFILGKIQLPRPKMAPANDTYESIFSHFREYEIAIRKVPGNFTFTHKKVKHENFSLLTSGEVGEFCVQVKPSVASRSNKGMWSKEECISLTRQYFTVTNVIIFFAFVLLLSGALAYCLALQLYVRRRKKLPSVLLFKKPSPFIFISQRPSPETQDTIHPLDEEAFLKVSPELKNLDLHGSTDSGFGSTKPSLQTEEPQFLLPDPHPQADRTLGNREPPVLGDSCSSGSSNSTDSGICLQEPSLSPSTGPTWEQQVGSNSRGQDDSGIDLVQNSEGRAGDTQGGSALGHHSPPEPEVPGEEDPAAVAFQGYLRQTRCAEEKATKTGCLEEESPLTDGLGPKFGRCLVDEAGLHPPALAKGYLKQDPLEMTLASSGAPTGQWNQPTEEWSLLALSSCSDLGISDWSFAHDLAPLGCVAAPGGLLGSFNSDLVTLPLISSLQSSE
IL10 receptor (IL10R) (human), sequence (Q08334 20-325, chain 2 of 2, further chain): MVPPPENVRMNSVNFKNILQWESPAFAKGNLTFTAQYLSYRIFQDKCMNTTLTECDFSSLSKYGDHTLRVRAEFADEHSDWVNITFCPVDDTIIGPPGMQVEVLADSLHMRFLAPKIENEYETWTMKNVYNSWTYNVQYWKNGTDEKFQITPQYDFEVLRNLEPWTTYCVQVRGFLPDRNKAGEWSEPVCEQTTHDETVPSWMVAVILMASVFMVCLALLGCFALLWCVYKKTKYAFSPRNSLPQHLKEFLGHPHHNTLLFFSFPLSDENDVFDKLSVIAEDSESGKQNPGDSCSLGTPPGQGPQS

Q: What does the source list for “wild-type human IL10 (wt hIL10) (from UniProt P22301 19-178) (ligand)”?
A: pSTAT3 MFI, B cells, 0.0001 nM (unstimulated 1193.5): 1160 MFI; pSTAT3 MFI, B cells, 0.001 nM (unstimulated 1193.5): 1140 MFI; pSTAT3 MFI, B cells, 0.01 nM (unstimulated 1193.5): 1220 MFI; pSTAT3 MFI, B cells, 0.1 nM (unstimulated 1193.5): 1780 MFI; pSTAT3 MFI, B cells, 1 nM (unstimulated 1193.5): 3950 MFI; pSTAT3 MFI, B cells, 10 nM (unstimulated 1193.5): 3930 MFI; pSTAT3 MFI, B cells, 100 nM (unstimulated 1045): 2400 MFI; pSTAT3 MFI, B cells, 100 nM (unstimulated 1193.5): 2620 MFI; pSTAT3 MFI, CD4+ T cells, 100 nM (unstimulated 1778): 9660 MFI; pSTAT3 MFI, CD4 T cells, 0.0001 nM (unstimulated 1887): 1970 MFI; pSTAT3 MFI, CD4 T cells, 0.001 nM (unstimulated 1887): 1880 MFI; pSTAT3 MFI, CD4 T cells, 0.01 nM (unstimulated 1887): 2220 MFI; pSTAT3 MFI, CD4 T cells, 0.1 nM (unstimulated 1887): 5170 MFI; pSTAT3 MFI, CD4 T cells, 1 nM (unstimulated 1887): 10700 MFI; pSTAT3 MFI, CD4 T cells, 10 nM (unstimulated 1887): 10800 MFI; pSTAT3 MFI, CD4 T cells, 100 nM (unstimulated 1887): 9560 MFI; pSTAT3 MFI, CD8+ T cells, 100 nM (unstimulated 1288): 8810 MFI; pSTAT3 MFI, CD8 T cells, 0.0001 nM (unstimulated 1446): 1700 MFI; pSTAT3 MFI, CD8 T cells, 0.001 nM (unstimulated 1446): 1430 MFI; pSTAT3 MFI, CD8 T cells, 0.01 nM (unstimulated 1446): 1720 MFI; pSTAT3 MFI, CD8 T cells, 0.1 nM (unstimulated 1446): 4300 MFI; pSTAT3 MFI, CD8 T cells, 1 nM (unstimulated 1446): 8890 MFI; pSTAT3 MFI, CD8 T cells, 10 nM (unstimulated 1446): 9890 MFI; pSTAT3 MFI, CD8 T cells, 100 nM (unstimulated 1446): 9010 MFI; pSTAT3 MFI, Monocytes, 0.0001 nM (unstimulated 2116): 2050 MFI; pSTAT3 MFI, Monocytes, 0.001 nM (unstimulated 2116): 2140 MFI; pSTAT3 MFI, Monocytes, 0.01 nM (unstimulated 2116): 2840 MFI; pSTAT3 MFI, Monocytes, 0.1 nM (unstimulated 2116): 9550 MFI; pSTAT3 MFI, Monocytes, 1 nM (unstimulated 2116): 28900 MFI; pSTAT3 MFI, Monocytes, 10 nM (unstimulated 2116): 30900 MFI; pSTAT3 MFI, Monocytes, 100 nM (unstimulated 1787): 27100 MFI; pSTAT3 MFI, Monocytes, 100 nM (unstimulated 2116): 26600 MFI; pSTAT3 MFI, NK cells, 0.0001 nM (unstimulated 1315): 1310 MFI; pSTAT3 MFI, NK cells, 0.001 nM (unstimulated 1315): 1270 MFI; pSTAT3 MFI, NK cells, 0.01 nM (unstimulated 1315): 1380 MFI; pSTAT3 MFI, NK cells, 0.1 nM (unstimulated 1315): 2280 MFI; pSTAT3 MFI, NK cells, 1 nM (unstimulated 1315): 4620 MFI; pSTAT3 MFI, NK cells, 10 nM (unstimulated 1315): 5700 MFI; pSTAT3 MFI, NK cells, 100 nM (unstimulated 1149): 4380 MFI; pSTAT3 MFI, NK cells, 100 nM (unstimulated 1315): 4790 MFI
